{"source": "patent US20130115220A1", "about": "“METHOD FOR PREVENTION OR TREATMENT OF METABOLIC SYNDROME” (DAINIPPON SUMITOMO PHARMA CO., LTD., priority 2010, published 2013)", "key": {"3T3-L1 preadipocytes": {"test_system": "3T3-L1 preadipocytes", "assay": "Differentiation of 3T3-L1 preadipocytes into mature adipocytes, lipid droplet formation by oil-red-O", "assay_type": "cell-based", "experimental": "To examine the function of AIM produced by macrophage that infiltrated into adipose tissue on the surrounding adipocytes, an experiment was performed to load AIM in the culture process for differentiation of 3T3-L1 preadipocytes into mature adipocytes.\nAs AIM, recombinant AIM protein (rAIM) of mouse was used. rAIM was prepared by culturing human-derived HEK293T cells transfected with a vector expressing mouse AIM (pCAGGS-mAIM-HA plasmid) in a serum-free medium (FreeStyle™ 293 Expression Medium; Invitrogen). rAIM was purified from the culture supernatant thereof using an anti-HA antibody column. In other Reference Examples shown below, AIM used was a similar rAIM protein. AIM was loaded by adding AIM to a culture medium at a concentration of 5 μg/ml.\nIn addition, differentiation of 3T3-L1 cells was induced as shown in FIG. 13 by first proliferating 3T3-L1 cells by cultivating for 4 days (day(−2)-day 2), after which cultivating in a culture medium containing insulin, dexamethasone (DEX) and isobutylmethylxanthine (IBMX) for 2 days (day 2-day 4) to start differentiation induction stimulation, and further cultivating in a culture medium containing insulin for 2 days (day 4-day 6).\nAfter the differentiation induction stimulation period (day 2-day 6), the cells were continuously cultured in a culture medium free of such differentiation induction stimulation factors. Then, the cells on day 10 day from the start of the differentiation induction stimulation (day 12) were stained with oil-red-O, and the state of differentiation of 3T3-L1 cells into mature adipocytes was observed."}, "3T3-L1 cells": {"test_system": "3T3-L1 cells", "assay": "Expression of adipocyte markers by quantitative real-time PCR", "assay_type": "cell-based, mouse", "settings": "day 12", "experimental": "The cells cultured in schedules A-D shown in FIG. 13 were recovered on day 10 from the start of the differentiation induction stimulation (day 12), and expression of adipocyte markers (C/EBPα, PPARγ1, PPARγ2, CD36, Glut4) at mRNA level was measured using 7500 Fast Real-Time PCR system (Invitrogen; CA, USA) by ΔΔCT method."}, "[1]": {"test_system": "differentiated 3T3-L1 cells", "assay": "Lipid droplet fusion in differentiated 3T3-L1 cells, oil-red-O", "assay_type": "cell-based, mouse", "settings": "rAIM 5 μg/ml", "experimental": "The differentiated 3T3-L1 cells were loaded with rAIM (5 μg/ml) according to the schedule shown in FIG. 13, E. The oil-red-0 staining was performed before and after rAIM loading.\nThe relative size of lipid droplet (Relative droplet size) was determined from an average diameter of 50 lipid droplets. […] The number of cells containing lipid droplets per unit area was measured in 5 different fields and the average was determined."}, "3T3-L1 adipocytes [2]": {"test_system": "3T3-L1 adipocytes", "assay": "Glycerol and free fatty acid released in culture supernatant", "assay_type": "cell-based, mouse", "settings": "rAIM 5 μg/ml, day 2, day 4, day 6", "experimental": "rAIM was loaded (5 μg/ml) on 3T3-L1 adipocytes, the amount of glycerol or free fatty acid released in the culture supernatant was measured on day 2, day 4, and day 6. After rAIM loading, the cells were washed twice with PBS, and incubated in a serum-free medium (FreeStyle™ 293 Expression Medium; Invitrogen) for 5 hr. The buffer was recovered, and the measurement was performed using a glycerol assay kit and a fatty acid assay kit (both Bio Vision Inc.) and according to the manual."}, "3T3-L1 adipocytes [3]": {"test_system": "3T3-L1 adipocytes", "assay": "Expression of lipid droplet formation-related genes and PREF-1 by real-time PCR", "assay_type": "cell-based, mouse", "settings": "rAIM 5 μg/ml", "experimental": "rAIM was loaded (5 μg/ml) on 3T3-L1 adipocytes, mRNA of lipid droplet formation-related genes (FSP27, Perilipin, and Adipophilin) was measured on day 2, day 4, and day 6 using 7500 Fast Real-Time PCR system (Invitrogen; CA, USA) and by the ΔΔCT method (each n=3).\nSimilarly, mRNA of PREF-1 of preadipocyte marker was also measured. The measurement value was standardized with GAPDH.\nRelative expression level was determined with that on day 0 as 1.0."}, "CD36-/- mice": {"test_system": "CD36-/- mice", "assay": "rAIM uptake into adipose tissue of CD36+/+ and CD36-/- mice", "assay_type": "in vivo", "settings": "rAIM intravenous 300 μg/mouse, 16 hr", "experimental": "Then, CD36^+/+ mice (wild-type) and CD36^−/− mice (Febbraio et al., J. Biol. Chem., 1999, 274:19055-19062) were intravenously injected with rAIM (300 μg/mouse in PBS), sacrificed 16 hr later, and a section was prepared from adipose tissue. AIM and macrophage F4/80 in the section were stained."}, "FAS": {"target": "FAS (Mus musculus, UniProt P19096)", "sequence (P19096 whole entry, the tested form may be a part)": "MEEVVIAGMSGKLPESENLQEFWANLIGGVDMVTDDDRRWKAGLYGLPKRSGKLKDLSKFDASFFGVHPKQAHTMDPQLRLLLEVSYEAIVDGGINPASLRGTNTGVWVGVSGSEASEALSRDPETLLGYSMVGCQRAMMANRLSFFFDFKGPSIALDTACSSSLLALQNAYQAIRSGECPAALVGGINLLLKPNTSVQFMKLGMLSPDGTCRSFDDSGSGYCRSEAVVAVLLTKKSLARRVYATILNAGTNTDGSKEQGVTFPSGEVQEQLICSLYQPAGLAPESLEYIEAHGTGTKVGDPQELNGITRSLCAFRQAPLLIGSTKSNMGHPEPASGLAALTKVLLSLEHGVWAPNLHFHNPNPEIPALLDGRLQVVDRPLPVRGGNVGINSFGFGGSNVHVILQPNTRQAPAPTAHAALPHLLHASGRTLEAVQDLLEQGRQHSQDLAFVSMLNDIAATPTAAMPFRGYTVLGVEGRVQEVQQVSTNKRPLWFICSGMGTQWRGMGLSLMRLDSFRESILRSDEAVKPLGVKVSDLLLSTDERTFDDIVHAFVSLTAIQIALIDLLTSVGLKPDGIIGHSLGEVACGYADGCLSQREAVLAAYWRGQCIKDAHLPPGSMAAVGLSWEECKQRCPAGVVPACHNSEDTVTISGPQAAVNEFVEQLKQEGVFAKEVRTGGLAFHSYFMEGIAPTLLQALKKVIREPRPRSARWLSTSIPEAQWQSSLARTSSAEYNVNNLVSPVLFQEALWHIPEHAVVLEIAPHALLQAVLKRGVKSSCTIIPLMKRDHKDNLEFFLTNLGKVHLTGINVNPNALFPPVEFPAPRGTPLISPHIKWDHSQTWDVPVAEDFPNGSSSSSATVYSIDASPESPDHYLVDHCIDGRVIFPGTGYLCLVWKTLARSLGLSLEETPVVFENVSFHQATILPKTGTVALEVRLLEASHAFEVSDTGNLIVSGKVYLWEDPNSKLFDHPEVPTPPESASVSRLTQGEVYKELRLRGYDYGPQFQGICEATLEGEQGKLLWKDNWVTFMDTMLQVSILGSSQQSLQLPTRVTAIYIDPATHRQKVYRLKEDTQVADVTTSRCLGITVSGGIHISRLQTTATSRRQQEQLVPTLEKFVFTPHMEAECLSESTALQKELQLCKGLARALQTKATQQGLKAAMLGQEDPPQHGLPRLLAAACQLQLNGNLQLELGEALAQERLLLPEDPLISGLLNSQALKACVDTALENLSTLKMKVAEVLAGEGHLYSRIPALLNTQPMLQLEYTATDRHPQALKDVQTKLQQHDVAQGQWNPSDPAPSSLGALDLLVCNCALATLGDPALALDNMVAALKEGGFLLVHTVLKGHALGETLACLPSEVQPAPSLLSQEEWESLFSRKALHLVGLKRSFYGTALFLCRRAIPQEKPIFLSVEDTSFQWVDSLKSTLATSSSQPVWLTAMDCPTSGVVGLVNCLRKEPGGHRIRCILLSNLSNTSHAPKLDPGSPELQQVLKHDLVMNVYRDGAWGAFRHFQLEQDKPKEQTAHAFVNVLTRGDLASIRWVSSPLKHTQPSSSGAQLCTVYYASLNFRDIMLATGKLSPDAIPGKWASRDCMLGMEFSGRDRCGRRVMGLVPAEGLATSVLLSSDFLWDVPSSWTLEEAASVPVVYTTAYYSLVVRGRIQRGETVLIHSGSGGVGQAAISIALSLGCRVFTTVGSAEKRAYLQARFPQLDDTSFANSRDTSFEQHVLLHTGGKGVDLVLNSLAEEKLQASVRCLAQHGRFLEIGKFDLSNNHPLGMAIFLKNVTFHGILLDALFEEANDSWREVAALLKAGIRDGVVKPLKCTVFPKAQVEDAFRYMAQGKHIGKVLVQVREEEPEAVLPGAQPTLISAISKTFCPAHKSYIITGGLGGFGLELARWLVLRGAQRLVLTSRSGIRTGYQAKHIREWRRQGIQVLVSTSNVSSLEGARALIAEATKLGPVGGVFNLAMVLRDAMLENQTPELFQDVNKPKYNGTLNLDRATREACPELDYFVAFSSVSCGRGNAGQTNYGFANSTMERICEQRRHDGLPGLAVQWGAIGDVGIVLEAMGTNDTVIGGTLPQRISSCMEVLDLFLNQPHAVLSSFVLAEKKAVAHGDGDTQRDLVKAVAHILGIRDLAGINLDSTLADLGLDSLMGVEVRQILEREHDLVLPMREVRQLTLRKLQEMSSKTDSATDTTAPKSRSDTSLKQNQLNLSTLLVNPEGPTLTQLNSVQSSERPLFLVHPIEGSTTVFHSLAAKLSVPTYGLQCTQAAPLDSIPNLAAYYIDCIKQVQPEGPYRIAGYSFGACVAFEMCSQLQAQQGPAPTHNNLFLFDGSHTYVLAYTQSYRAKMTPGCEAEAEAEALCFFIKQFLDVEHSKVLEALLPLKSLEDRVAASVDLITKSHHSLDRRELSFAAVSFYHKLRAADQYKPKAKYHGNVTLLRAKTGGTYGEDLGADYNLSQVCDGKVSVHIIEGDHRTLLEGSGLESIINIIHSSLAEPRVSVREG", "assay": "Co-immunoprecipitation of AIM-HA and FLAG-FAS or FAS domains in HEK 293T cells", "assay_type": "binding", "parameters": "expressed in transfected cells; host or cells: HEK 293T cells co-expressing AIM-HA", "settings": "HEK 293T cells co-expressing HA-tag rAIM and FLAG-tag FAS", "excerpt": "In HEK 293T cells, rAIM labeled with HA-tag and FAS labeled with FLAG-tag were co-expressed, and the binding of AIM and FAS was confirmed by co-immunoprecipitation using an anti-Flag antibody or anti-HA antibody.\nThen, the AIM binding region in FAS was examined. FAS contains 8 domains of keto acyl synthase (KS), malonyl/acetyl transferase (MAT), dehydrase (DH), central core (CC), enoylreductase (ER), keto reductase (KR), acylcarrier protein (ACP) and thioesterase (TE).\nThe N-terminal of each domain of FAS was labeled with Flag sequence, and expressed in HEK293T cells where AIM-HA is stably expressed. The binding of AIM-HA and each domain of FAS was confirmed by co-immunoprecipitation using an anti-Flag antibody or anti-HA antibody.\nThe sequence encoding full-length FAS cDNA (nucleotide: +1-7515) labeled with FLAG-tag was constructed using a part of the cDNA clone provided by Dr. Ohara (Kazusa DNA Research Institute) and some fragments cloned by RT-PCR and pFLAG-CMV2 vector (Sigma).\nA cDNA fragment encoding KS, MAT, DH, CC, ER, KR, ACP or TE was prepared by subcloning to pFLAG-CMV2 vector by using full-length FAS cDNA as a template."}}, "data": [{"molecule": "rAIM: recombinant AIM protein (rAIM) of mouse, HA-tagged, prepared in HEK293T cells (protein, left off: small tags and cut ends, recombinant AIM protein (rAIM) of mouse, HA-tagged, prepared in HEK293T cells) ESPTKVQLVGGAHRCEGRVEVEHNGQWGTVCDDGWDRRDVAVVCRELNCGAVIQTPRGASYQPPASEQRVLIQGVDCNGTEDTLAQCELNYYVFDCSHEEDAGAQCENPDSDLLFIPEDVRLVDGPGHCQGRVEVLHQSQWSTVCKAGWNLQVSKVVCRQLGCGRALLTYGSCNKNTQGKGPIWMGKMSCSGQEANLRSCLLSRLENNCTHGEDTWMECEDPFELKLVGGDTPCSGRLEVLHKGSWGSVCDDNWGEKEDQVVCKQLGCGKSLHPSPKTRKIYGPGAGRIWLDDVNCSGKEQSLEFCRHRLWGYHDCTHKEDVEVICTDFDV", "values": [{"measurement": "differentiation suppressive effect", "setting": "3T3-L1 preadipocytes; AIM concentration decreased to 1 μg/ml and 0.1 μg/ml", "result": "decreased"}, {"measurement": "differentiation of 3T3-L1 cells into adipocytes", "setting": "3T3-L1 preadipocytes; AIM continuously loaded day(-2)-day 12", "result": "completely suppressed"}, {"measurement": "number of dead cells", "setting": "3T3-L1 preadipocytes; AIM loading on 3T3-L1 cells", "result": "did not increase"}, {"measurement": "differentiation of 3T3-L1 cells (cells having lipid droplet, oil-red-O, day 12)", "setting": "3T3-L1 preadipocytes; schedule B, AIM 5 μg/ml loaded day 2-day 12", "result": "nearly completely suppressed"}, {"measurement": "differentiation of 3T3-L1 cells (cells having lipid droplet, oil-red-O, day 12)", "setting": "3T3-L1 preadipocytes; schedule C, AIM 5 μg/ml loaded only day 2-day 4", "result": "nearly completely suppressed"}, {"measurement": "differentiation of 3T3-L1 cells into mature adipocytes", "setting": "3T3-L1 preadipocytes; schedule D, AIM loaded only before differentiation induction, day(-2)-day 2", "result": "not suppressed"}, {"measurement": "expression of adipocyte markers (C/EBPα, PPARγ1, PPARγ2, CD36, Glut4) mRNA", "setting": "3T3-L1 cells; schedule B", "result": "suppressed"}, {"measurement": "expression of adipocyte markers (C/EBPα, PPARγ1, PPARγ2, CD36, Glut4) mRNA", "setting": "3T3-L1 cells; schedule D as printed, AIM administered simultaneously with differentiation induction stimulation", "result": "suppressed"}, {"measurement": "expression of adipocyte markers (C/EBPα, PPARγ1, PPARγ2, CD36, Glut4) mRNA", "setting": "3T3-L1 cells; schedule D, AIM only before differentiation induction", "result": "expressed"}, {"measurement": "number of lipid droplet-containing cells per unit area", "setting": "[1]; 6 days", "result": "significantly decreased"}, {"measurement": "relative size of lipid droplets", "setting": "[1]; 6 days", "result": "significantly decreased"}, {"measurement": "lipid droplet in the cell (oil-red-O)", "setting": "[1]; 6 days of culture", "result": "markedly decreased"}, {"measurement": "amount of free fatty acids in the culture supernatant", "setting": "3T3-L1 adipocytes [2]", "result": "significantly increased"}, {"measurement": "amount of glycerol in the culture supernatant", "setting": "3T3-L1 adipocytes [2]", "result": "significantly increased"}, {"measurement": "expression of lipid droplet formation-related genes (FSP27, Perilipin, Adipophilin)", "setting": "3T3-L1 adipocytes [3]; day 2, relative to day 0", "result": "decreased markedly"}, {"measurement": "expression of preadipocyte markers (PREF-1)", "setting": "3T3-L1 adipocytes [3]; during rAIM treatment", "result": "did not increase"}, {"measurement": "AIM signal in adipocyte", "setting": "CD36-/- mice", "result": "markedly decreased"}, {"measurement": "binding of AIM and FAS (co-immunoprecipitation)", "setting": "FAS", "result": "coprecipitated"}]}]}
